Assay results reported in article PMC2795026.
Where two headings read alike, the source gives them in different places.

T1: MBP-Brh2 (Ustilago maydis, UniProt Q8NJ74 1-1075)
T1 sequence: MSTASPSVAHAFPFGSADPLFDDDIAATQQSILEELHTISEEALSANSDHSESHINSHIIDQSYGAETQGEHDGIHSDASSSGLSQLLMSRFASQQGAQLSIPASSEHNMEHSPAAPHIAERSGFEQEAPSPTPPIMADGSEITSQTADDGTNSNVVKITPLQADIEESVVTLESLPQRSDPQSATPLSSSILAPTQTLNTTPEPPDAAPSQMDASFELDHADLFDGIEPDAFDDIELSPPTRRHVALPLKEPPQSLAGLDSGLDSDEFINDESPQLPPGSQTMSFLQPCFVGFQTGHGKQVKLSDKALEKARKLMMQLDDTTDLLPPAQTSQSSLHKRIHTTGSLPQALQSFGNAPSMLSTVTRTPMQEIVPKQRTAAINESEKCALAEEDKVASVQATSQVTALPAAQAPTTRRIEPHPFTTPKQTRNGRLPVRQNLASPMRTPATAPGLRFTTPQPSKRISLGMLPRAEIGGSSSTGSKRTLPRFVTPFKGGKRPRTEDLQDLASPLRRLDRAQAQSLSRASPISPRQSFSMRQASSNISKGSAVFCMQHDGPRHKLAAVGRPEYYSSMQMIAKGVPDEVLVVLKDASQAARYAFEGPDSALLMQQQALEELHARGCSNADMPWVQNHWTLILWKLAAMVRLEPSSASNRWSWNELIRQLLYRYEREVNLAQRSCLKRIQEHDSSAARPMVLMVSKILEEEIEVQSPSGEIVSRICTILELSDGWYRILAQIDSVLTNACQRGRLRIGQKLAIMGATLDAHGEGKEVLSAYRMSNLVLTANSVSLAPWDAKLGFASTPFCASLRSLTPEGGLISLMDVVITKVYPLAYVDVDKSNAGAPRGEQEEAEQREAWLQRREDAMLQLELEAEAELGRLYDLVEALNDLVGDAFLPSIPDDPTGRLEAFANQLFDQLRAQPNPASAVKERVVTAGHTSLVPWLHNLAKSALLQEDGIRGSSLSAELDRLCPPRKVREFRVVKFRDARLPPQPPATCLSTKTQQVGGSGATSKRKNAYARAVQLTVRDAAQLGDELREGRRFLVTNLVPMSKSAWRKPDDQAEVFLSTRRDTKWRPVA

T2: Brh2 apoprotein (stripped of Dss1) (Ustilago maydis, UniProt Q8NJ74 1-1075)
T2 sequence: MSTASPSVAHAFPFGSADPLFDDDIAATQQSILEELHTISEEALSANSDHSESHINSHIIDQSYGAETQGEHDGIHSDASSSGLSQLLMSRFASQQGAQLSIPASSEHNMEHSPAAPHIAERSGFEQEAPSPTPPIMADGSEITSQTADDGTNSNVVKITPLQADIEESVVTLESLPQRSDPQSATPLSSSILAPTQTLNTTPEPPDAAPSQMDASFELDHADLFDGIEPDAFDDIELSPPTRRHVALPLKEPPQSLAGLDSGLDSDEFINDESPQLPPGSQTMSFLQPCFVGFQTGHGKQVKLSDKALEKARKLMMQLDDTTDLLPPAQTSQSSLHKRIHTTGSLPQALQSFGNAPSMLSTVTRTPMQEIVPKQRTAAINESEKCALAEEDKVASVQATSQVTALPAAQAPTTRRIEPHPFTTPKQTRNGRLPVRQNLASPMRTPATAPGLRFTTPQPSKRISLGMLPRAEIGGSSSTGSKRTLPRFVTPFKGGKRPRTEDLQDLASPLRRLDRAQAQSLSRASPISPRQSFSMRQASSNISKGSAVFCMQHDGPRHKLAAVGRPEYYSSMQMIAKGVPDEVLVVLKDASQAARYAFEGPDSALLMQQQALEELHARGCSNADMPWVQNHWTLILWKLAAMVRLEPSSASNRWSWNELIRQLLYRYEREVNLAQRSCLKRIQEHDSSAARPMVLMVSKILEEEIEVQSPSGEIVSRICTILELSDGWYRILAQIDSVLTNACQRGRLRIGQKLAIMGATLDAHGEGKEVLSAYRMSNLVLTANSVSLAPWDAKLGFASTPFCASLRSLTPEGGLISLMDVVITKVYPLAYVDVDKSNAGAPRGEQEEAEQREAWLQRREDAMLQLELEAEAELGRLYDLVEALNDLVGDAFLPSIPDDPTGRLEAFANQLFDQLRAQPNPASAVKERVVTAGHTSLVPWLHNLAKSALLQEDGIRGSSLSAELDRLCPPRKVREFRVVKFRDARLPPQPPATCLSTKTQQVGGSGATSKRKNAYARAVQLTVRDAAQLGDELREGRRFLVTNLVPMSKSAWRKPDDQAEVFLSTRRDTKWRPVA

T3: MBP-Brh2NT-His (Ustilago maydis, UniProt Q8NJ74 1-551)
T3 sequence: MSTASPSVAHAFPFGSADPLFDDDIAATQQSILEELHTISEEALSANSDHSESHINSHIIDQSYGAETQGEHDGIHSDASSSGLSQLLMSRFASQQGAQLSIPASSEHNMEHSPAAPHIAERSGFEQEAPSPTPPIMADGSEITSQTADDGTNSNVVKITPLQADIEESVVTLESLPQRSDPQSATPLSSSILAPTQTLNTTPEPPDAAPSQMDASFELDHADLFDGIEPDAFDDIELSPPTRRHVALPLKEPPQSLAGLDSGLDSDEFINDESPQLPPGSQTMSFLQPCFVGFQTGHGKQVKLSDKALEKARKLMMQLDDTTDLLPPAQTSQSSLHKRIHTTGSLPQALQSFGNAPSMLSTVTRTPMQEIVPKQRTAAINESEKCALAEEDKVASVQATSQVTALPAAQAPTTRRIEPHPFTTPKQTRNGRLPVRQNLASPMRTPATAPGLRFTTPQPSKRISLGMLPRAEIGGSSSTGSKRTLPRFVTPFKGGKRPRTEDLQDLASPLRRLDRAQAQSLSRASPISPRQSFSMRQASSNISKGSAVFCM


Legend:
MBP-Brh2 [1] = target: T1, MBP-Brh2; experiment: pull-down
[2] = target: T2, Brh2 apoprotein (stripped of Dss1); experiment: EMSA
MBP-Brh2NT-His = target: T3, MBP-Brh2NT-His; experiment: EMSA
MBP-Brh2 [3] = target: T1, MBP-Brh2; experiment: pull-down; remark: listed apart in the source

Binder | binding result (MBP-Brh2 [1]) | binding result [2] | binding result (MBP-Brh2NT-His) | binding result (MBP-Brh2 [3])
ss60mer (ssDNA) DNA: GCTGCGCAAGGATAGGTCGAATTTTCTCATTTTCCGCCAGCAGTCCACTTCGATTTAATT | binds | binds | binds | 
3'-biotin ss60mer (ssDNA) DNA: GCTGCGCAAGGATAGGTCGAATTTTCTCATTTTCCGCCAGCAGTCCACTTCGATTTAATT |  |  |  | binds
